Target: PD-L1 extracellular domain expressed in HEK293 cells (human) (UniProt Q9NZQ7)
Assay: gradient dilution ELISA on coated PD-L1, serum dilution 200

Sequence of PD-L1 extracellular domain expressed in HEK293 cells (human) (Q9NZQ7 19-238): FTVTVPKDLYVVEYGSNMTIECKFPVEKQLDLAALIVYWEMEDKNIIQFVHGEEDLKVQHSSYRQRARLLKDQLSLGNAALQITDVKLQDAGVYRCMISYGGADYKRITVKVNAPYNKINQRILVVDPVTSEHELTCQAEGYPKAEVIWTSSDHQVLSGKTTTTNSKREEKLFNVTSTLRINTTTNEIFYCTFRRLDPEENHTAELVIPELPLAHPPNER

ELISA OD: 0.631 OD450 nm
Substance: Alpaca serum before immunization
